This data set concerns the molecule itself. The data set can be described thus: elution peak in chromatography during purification; purification of His-tagged UrdA′; the sentence follows the HisTrap HP imidazole gradient; one large asymmetrical peak.

We go through one protein from PMC7921117, “Structural characterization of the microbial enzyme urocanate reductase mediating imidazole propionate production” (Nature Communications, 2021).

B1: two-domain urocanate reductase UrdA′ (clamp domain and FAD-binding domain) from Shewanella oneidensis MR-1 (domain or fragment, Shewanella oneidensis (strain MR-1), UniProt Q8CVD0 130-582, looked up)
chain: EYTYDVVIIGSGGAGFSAGLEAIAAGRSAVIIEKMPIIGGNSLISGAEMNVAGSWVQKNMGITDSKELFISDTLKGGDFKGDPEMVKTMVDNAVGAAEWLRDYVKVEFYPDQLFQFGGHSVKRALIPKGHTGAEVISKFSIKADEVGLPIHTNTKAEKLIQDQTGRIVGVEAAHNGKTITYHAKRGVVIATGGFSSNMEMRKKYNPELDERYGSTGHAGGTGDGIVMAEKIHAAAKNMGYIQSYPICSPTSGAIALIADSRFFGAVLINQKGERFVEELERRDVISHAILAQPGRYTYVLWNQDIENVAHTVEMHQGELKEFTKDGLMYKVDTLEEAAKVFNIPEDKLLSTIKDVNHYAATGKDEAFNHRSGLVDLSKGPYWILKATPSVHHTMGGLVVDTRTRVLDEQGKVIPGLFAAGEVTGLTHGTNRLGGNAYTDIIVYGRIAGQEAAK
notes: Synthetic gene in pET-24a(+); The main peak fraction, mostly monomeric, was used for further experiments; also called UrdA′wt; Two-domain WT; source: E. coli TUNER (DE3), purified (HisTrap HP; size-exclusion chromatography before crystallization); not shown: 6xHis, C-terminal, kept
Take B1: the binding result is on record as “binds”.
